From patent publication US12427210B2, “Compounds comprising a fibroblast activation protein ligand and use thereof” (priority 2019, dated 2025)

Experiments:
[1] = target: Activated Protein C (Homo sapiens (Human)) (UniProt P04070)
[2] = target: Beta secretase (Homo sapiens (Human)) (UniProt P56817)
[3] = target: T1, Caspase-3 (Homo sapiens (Human)) (UniProt P42574)
T1 sequence: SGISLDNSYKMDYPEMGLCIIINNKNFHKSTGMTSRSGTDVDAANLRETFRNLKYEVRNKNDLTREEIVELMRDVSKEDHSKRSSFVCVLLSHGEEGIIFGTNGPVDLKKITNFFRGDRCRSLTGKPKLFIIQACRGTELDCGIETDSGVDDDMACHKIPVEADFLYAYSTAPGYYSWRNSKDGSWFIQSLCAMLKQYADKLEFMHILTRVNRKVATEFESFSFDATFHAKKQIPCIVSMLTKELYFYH

[4] = target: Caspase-8 (Homo sapiens (Human)) (UniProt Q14790)
[5] = target: Caspase-9 (Homo sapiens (Human)) (UniProt P55211)
[6] = target: T2, Cathepsin F (Homo sapiens (Human)) (UniProt Q9UBX1)
T2 sequence: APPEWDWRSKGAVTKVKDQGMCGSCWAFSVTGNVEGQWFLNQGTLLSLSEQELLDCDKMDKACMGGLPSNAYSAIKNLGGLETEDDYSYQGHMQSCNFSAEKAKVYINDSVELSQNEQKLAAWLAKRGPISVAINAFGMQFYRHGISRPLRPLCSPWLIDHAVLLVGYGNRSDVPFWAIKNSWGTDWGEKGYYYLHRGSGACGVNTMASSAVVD

[7] = target: Cathepsin L (Homo sapiens (Human)) (UniProt P07711)
[8] = target: DPP8 (Homo sapiens (Human)) (UniProt Q6V1X1)
[9] = target: DPP9 (Homo sapiens (Human)) (UniProt Q86TI2)
[10] = target: FAP (enzyme of the specificity protease screening) (Homo sapiens (Human)) (UniProt Q12884)
[11] = target: Matrix metalloprotease1 (Homo sapiens (Human)) (UniProt P03956)
[12] = target: T3, Renin (Homo sapiens (Human)) (UniProt P00797)
T3 sequence: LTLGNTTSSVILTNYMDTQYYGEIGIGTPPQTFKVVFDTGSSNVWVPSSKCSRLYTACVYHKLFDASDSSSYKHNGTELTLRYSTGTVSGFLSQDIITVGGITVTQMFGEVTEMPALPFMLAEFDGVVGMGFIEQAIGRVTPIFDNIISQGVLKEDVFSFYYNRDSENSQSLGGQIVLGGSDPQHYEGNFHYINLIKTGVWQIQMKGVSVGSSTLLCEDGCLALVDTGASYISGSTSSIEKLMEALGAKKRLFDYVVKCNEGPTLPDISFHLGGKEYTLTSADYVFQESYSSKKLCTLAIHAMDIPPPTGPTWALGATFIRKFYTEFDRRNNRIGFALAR

[13] = target: T4, Ubiquitin carboxy-terminal hydrolase L3 (Homo sapiens (Human)) (UniProt P15374)
T4 sequence: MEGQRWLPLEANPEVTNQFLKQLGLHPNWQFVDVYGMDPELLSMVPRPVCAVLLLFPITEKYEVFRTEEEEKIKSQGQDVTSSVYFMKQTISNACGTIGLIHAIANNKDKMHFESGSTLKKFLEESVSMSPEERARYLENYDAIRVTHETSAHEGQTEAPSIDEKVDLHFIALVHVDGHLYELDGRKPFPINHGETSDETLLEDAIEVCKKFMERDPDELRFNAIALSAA

[14] = target: Ubiquitin carboxyl-terminal hydrolase 10 (Homo sapiens (Human)) (UniProt Q14694)
[15] = target: Ubiquitin carboxyl-terminal hydrolase 14 (Homo sapiens (Human)) (UniProt P54578)
[16] = target: T5, Ubiquitin carboxyl-terminal hydrolase 2 (Homo sapiens (Human)) (UniProt O75604)
T5 sequence: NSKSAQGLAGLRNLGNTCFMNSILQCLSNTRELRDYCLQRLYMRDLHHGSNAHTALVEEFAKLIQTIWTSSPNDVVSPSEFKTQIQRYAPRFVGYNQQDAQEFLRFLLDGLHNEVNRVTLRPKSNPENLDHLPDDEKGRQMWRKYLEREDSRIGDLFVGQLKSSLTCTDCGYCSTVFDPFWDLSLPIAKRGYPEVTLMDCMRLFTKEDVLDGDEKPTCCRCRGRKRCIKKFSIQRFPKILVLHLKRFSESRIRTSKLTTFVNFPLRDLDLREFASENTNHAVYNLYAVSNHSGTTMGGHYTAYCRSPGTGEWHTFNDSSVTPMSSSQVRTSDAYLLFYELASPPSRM

[17] = target: Ubiquitin carboxyl-terminal hydrolase 5 (Homo sapiens (Human)) (UniProt P45974)
[18] = target: serine protease NS3 (a.a. 3-181) from Hepatitis C virus genotype 1b (mutant D168V) (Hepatitis C virus genotype 1b)
BZD (central) = test: radioligand displacement, compound at 10 µM
[19] = target: Ca2+ channel (L, dihydropyridine site); test: radioligand displacement, compound at 10 µM
KV channel = test: radioligand displacement, compound at 10 µM
MAO-A = test: radioligand displacement, compound at 10 µM
NMDA = test: radioligand displacement, compound at 10 µM
Na+ channel (site 2) = test: radioligand displacement, compound at 10 µM
[20] = target: Recombinant human FAP (R&D systems, #3715-SE) (human)
[21] = target: Recombinant human DPP4 (R&D systems #9168-SE) (human) (UniProt P27487)
[22] = target: recombinant human PREP (R&D systems, #4308-SE) (human) (UniProt P48147)
Chain of recombinant human PREP (R&D systems, #4308-SE) (human) (P48147 whole entry): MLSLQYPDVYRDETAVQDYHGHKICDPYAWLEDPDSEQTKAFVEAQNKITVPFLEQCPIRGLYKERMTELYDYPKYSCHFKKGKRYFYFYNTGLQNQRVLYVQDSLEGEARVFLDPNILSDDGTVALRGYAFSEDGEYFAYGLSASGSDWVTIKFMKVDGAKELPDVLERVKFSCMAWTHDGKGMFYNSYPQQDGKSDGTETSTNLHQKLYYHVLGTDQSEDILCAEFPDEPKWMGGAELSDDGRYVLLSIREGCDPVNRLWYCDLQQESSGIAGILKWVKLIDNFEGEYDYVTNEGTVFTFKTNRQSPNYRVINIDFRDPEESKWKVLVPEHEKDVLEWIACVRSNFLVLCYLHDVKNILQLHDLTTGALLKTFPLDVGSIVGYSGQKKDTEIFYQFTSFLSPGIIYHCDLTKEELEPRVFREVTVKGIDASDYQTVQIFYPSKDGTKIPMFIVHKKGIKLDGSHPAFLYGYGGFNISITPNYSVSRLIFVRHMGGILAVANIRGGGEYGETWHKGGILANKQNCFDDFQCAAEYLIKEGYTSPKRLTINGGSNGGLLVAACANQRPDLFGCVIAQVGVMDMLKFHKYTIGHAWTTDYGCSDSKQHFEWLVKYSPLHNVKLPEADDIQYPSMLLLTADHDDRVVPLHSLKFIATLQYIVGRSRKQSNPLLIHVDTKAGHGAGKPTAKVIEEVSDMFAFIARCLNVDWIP

Chain of Matrix metalloprotease1 (Homo sapiens (Human)) (P03956 100-469): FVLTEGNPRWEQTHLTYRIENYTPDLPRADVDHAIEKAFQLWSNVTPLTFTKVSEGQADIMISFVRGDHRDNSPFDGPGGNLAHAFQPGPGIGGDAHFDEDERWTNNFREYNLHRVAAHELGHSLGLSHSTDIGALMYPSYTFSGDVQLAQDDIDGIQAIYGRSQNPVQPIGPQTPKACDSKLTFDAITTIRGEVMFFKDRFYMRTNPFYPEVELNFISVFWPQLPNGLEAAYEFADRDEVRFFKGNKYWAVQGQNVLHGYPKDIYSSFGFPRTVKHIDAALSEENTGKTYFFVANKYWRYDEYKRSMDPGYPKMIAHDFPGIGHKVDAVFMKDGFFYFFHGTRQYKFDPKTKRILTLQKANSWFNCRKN
Chain of Caspase-8 (Homo sapiens (Human)) (Q14790 217-479 limits assumed): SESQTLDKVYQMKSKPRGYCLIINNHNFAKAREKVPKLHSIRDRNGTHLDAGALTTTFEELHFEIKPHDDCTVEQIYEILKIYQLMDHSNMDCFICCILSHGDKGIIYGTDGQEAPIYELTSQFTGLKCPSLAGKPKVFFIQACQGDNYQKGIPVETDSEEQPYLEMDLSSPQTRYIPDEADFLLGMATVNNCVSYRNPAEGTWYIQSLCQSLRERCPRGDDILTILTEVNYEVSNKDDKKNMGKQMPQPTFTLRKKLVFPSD
Chain of Ubiquitin carboxyl-terminal hydrolase 10 (Homo sapiens (Human)) (Q14694 whole entry): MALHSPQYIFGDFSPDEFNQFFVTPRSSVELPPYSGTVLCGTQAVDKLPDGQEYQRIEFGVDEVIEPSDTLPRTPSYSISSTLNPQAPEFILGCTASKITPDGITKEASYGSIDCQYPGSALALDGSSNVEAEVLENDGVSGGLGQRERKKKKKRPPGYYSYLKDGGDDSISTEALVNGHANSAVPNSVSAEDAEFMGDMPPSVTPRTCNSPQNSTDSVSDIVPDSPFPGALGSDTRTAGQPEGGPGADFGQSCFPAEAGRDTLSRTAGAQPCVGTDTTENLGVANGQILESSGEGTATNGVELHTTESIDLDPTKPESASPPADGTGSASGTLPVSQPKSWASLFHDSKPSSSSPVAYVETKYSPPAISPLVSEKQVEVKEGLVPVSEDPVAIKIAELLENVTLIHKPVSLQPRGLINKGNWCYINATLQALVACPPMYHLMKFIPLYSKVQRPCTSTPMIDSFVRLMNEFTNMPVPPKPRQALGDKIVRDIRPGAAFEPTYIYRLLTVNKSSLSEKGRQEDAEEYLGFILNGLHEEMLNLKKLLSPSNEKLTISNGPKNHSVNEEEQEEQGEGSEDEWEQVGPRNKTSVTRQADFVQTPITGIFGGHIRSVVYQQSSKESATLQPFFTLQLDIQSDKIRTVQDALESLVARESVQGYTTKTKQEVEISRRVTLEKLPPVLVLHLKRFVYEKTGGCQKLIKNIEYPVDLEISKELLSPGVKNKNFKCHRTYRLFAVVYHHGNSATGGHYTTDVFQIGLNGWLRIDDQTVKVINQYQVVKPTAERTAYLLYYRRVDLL
Chain of Ubiquitin carboxyl-terminal hydrolase 5 (Homo sapiens (Human)) (P45974 whole entry): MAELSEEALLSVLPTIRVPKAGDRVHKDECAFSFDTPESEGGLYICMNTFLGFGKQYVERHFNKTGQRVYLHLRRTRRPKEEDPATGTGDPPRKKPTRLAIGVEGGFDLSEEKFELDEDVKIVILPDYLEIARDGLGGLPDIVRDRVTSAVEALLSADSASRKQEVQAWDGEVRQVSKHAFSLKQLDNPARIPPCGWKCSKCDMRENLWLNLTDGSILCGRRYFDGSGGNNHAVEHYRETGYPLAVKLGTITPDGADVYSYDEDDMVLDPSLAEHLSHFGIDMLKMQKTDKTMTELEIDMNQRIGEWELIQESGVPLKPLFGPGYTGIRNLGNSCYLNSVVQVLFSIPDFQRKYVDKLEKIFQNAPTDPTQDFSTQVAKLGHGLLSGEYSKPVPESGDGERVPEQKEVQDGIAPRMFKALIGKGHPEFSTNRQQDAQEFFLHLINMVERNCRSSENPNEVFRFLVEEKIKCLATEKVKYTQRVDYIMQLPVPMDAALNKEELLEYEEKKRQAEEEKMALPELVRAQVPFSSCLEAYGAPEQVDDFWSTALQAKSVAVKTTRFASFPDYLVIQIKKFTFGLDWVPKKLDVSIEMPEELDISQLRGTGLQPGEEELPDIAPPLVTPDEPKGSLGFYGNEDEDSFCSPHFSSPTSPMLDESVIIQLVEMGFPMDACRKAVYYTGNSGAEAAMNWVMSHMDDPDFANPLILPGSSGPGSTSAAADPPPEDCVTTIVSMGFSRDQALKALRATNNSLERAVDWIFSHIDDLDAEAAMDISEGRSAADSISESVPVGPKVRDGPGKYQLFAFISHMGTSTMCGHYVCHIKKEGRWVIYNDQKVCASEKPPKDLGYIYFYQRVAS
Chain of Caspase-9 (Homo sapiens (Human)) (P55211 whole entry): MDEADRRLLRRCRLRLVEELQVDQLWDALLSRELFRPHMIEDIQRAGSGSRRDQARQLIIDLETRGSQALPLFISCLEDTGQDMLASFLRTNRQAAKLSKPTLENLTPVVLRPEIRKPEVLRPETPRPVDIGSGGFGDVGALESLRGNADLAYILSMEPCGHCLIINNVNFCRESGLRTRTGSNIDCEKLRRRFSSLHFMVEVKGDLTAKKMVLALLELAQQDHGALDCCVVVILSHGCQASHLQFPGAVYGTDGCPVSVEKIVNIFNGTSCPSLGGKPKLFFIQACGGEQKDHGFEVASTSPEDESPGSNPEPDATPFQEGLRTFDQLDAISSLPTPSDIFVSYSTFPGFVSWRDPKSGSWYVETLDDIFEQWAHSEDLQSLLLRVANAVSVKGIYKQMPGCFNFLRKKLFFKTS
Chain of FAP (enzyme of the specificity protease screening) (Homo sapiens (Human)) (Q12884 26-760 limits assumed): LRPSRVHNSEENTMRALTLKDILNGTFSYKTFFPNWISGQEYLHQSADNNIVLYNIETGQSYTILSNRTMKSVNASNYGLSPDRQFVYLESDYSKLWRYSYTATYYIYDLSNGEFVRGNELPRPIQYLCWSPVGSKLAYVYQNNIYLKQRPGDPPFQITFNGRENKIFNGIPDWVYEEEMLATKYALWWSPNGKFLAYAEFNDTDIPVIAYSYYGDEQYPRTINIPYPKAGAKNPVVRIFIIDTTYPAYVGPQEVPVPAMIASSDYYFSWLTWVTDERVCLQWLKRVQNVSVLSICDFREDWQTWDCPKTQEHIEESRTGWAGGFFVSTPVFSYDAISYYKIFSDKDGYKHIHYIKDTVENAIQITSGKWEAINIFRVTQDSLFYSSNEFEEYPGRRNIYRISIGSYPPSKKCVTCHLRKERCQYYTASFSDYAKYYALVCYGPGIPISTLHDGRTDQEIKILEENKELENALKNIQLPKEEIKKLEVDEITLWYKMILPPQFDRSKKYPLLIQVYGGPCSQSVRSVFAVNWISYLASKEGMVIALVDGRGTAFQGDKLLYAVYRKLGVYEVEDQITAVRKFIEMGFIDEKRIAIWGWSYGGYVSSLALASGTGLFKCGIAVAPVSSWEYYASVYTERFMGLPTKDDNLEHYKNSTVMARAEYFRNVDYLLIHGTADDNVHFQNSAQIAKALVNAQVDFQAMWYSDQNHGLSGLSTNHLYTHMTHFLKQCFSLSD
Chain of Recombinant human FAP (R&D systems, #3715-SE) (human) (chain, as listed by the source limits assumed): as the sequence (Q12884 26-760 limits assumed) above

| Substance | Percentage inhibition (%) (% inhibition at 10 µM) [1] | Percentage inhibition (%) (% inhibition at 10 µM) [2] | Percentage inhibition (%) (% inhibition at 10 µM) [3] | Percentage inhibition (%) (% inhibition at 10 µM) [4] | Percentage inhibition (%) (% inhibition at 10 µM) [5] | Percentage inhibition (%) (% inhibition at 10 µM) [6] | Percentage inhibition (%) (% inhibition at 10 µM) [7] | Percentage inhibition (%) (% inhibition at 10 µM) [8] | Percentage inhibition (%) (% inhibition at 10 µM) [9] | Percentage inhibition (%) (% inhibition at 1 µM) [10] | Percentage inhibition (%) (% inhibition at 10 µM) [11] | Percentage inhibition (%) (% inhibition at 10 µM) [12] | Percentage inhibition (%) (% inhibition at 10 µM) [13] | Percentage inhibition (%) (% inhibition at 10 µM) [14] | Percentage inhibition (%) (% inhibition at 10 µM) [15] | Percentage inhibition (%) (% inhibition at 10 µM) [16] | Percentage inhibition (%) (% inhibition at 10 µM) [17] | Percentage inhibition (%) (% inhibition at 10 µM) [18] | % Inhibition of Specific Binding (BZD (central)) [%] | % Inhibition of Specific Binding [19] [%] | further results |
| --- | --- | --- | --- | --- | --- | --- | --- | --- | --- | --- | --- | --- | --- | --- | --- | --- | --- | --- | --- | --- | --- |
| Hex-[Cys(tMeBn(DOTA-AET))-Pro-Pro-Thr-Gln-Phe-Cys]-OH (3BP-3554) (peptide) | 1 | 7 | -1 | -3 | -2 | -25 | -6 | 11 | -5 | 97 | -7 | -1 | 0 | -1 | 2 | -1 | -2 | -17 | 5 | 54 | % Inhibition of Specific Binding (KV channel): 4%; % Inhibition of Specific Binding (MAO-A): -25%; % Inhibition of Specific Binding (NMDA): 1%; % Inhibition of Specific Binding (Na+ channel (site 2)): 14% |
| Hex-[Cys(tMeBn(DOTA-PP))-Pro-Pro-Thr-Gln-Phe-Cys]-Asp-NH2 (3BP-3407) (peptide) | 8 | -5 | -2 | 0 | 8 | -24 | 6 | 5 | 0 | 98 | 2 | 3 | 14 | 5 | 5 | 7 | 46 | -6 | -9 | 42 | pIC50 Category (Activity) [20]: > 8 pIC50; pIC50 (DPP4) [21]: < 6 pIC50; pIC50 (PREP) [22]: < 6 pIC50; % Inhibition of Specific Binding (KV channel): -5%; % Inhibition of Specific Binding (MAO-A): -5%; % Inhibition of Specific Binding (NMDA): 9%; % Inhibition of Specific Binding (Na+ channel (site 2)): -7% |
